Experimental data reported in publication PMC6614557 (Nature medicine, 2018).
Values belong to the molecule of their own block, whether it stands above or below them.

Assays:
[1] = target: T1, ONECUT2 (OC2), OC2-HOX domain (Homo sapiens, UniProt O95948); assay: SPR, His-tagged OC2-HOX immobilized, […] model fit; format: binding
T1 sequence (O95948 330-485): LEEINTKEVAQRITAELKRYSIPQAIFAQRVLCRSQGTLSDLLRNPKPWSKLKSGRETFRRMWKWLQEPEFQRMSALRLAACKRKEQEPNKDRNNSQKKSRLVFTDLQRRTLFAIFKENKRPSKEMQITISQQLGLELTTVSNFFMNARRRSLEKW

[2] = target: T2, OC2-HOX (ONECUT2 homeodomain construct) (Homo sapiens, UniProt O95948 330-485); assay: SPR
T2 sequence: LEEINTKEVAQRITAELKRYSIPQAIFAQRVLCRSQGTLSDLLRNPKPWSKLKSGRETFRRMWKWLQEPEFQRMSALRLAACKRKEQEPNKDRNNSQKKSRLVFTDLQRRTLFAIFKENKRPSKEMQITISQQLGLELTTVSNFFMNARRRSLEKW

SEC = target: the molecule itself; assay: SEC

Kd [1]: 7.43 µM
Molecule: NC(CO)C(=O)N/N=C/c1ccc(O)c(O)c1O (racemic) [CSRM617, 1-{(E)-[(2,3,4-Trihydroxyphenyl)methylidene]hydrazino}−2-amino-3-hydroxy-1-propanone]

B1: PEG10 promoter OC2 motif probe (dsDNA)
DNA 1: TAGATCGATTTGCA
DNA 2: TGCAAATCGATCTA
Kd [2]: ~0.001 µM

B2: Recombinant OC2-HOX domain (L330-W485) of OC2 (domain or fragment, human, UniProt O95948 330-485, looked up)
chain: LEEINTKEVAQRITAELKRYSIPQAIFAQRVLCRSQGTLSDLLRNPKPWSKLKSGRETFRRMWKWLQEPEFQRMSALRLAACKRKEQEPNKDRNNSQKKSRLVFTDLQRRTLFAIFKENKRPSKEMQITISQQLGLELTTVSNFFMNARRRSLEKW
stoichiometry N (SEC): 2
